# ± gives the standard deviation.
# Assay: protein stability index of a GFP-peptide fusion (GPS, HEK-293T) (PSI 1-6); higher = more stable
# Details: c terminus: a fixed tail appended
# 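Also: 24-mer peptide tiles fused after GFP, lentivirally expressed, FACS-sorted into six equal bins by GFP/DsRed ratio, decoded by Illumina sequencing, PSI is the read-weighted mean bin number.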
Sequence,protein stability index (treatment: DMSO),"protein stability index (treatment: MLN4924 1 uM, 8 h)"
EDSKRWSKMDQLAKELTAEKRLEG [CHGA],4.97 ± 0.33,5.11 ± 0.26
YTRIWSLHDARLLRTIPSPYPASK [DCAF4],2.46 ± 0.48,2.87 ± 0.17
VAGGLVACRVTELQQQPLCTSVNT [LRRC59],2.39 ± 0.5,2.59 ± 0.18
GMDLNLEAEALAGTGLVLDEQLNE [HDAC6],5.4 ± 0.44,5.33 ± 0.24
PGGNVKGVWAPPAPGFGEDVPNRL [BEX5],3.95 ± 0.18,4.16 ± 0.23
IPVFRLARRRKKILFYCHFPDLLL [ALG2],2.88 ± 0.57,2.44 ± 0.29
SGMVTIITGLPLDNPSVLSGPMQA [SMG5],2.32 ± 0.35,2.14 ± 0.39
SYSTQASAAAATAELLKKQEELNR [SCAMP3],4.99 ± 0.19,5.03 ± 0.11
DVGRYIDHYAAIKKAWDDLKKYLE [FBXO3],2.31 ± 0.34,2.97 ± 0.52
QDLLDVIRIKLDPCHPTVKNWRNF [EDARADD],2.27 ± 0.75,2.35 ± 0.34
AVGDRQDGLREQLQAPVPPDSVPS [PBXIP1],5.33 ± 0.37,5.37 ± 0.18
GYEKRNLARVPKLDLKRQYDRVAQ [CHGB],3.37 ± 0.55,3.11 ± 0.29
LKAHAEEKPPSGTKEKKHQCDHCE [PLAGL1],5.38 ± 0.22,5.46 ± 0.098
YGLQGGMAFLDKRLQVKEHQHEEI [ATL3],3.06 ± 0.51,3.39 ± 0.65
DLQNLLGFTPEELHAILGVQPDTE [ETS2],3.25 ± 0.21,3.45 ± 0.29
VLMKGQHLHLETFKAVLDGLDVLL [PRAME],2.26 ± 0.38,2.17 ± 0.1
GDKSESPDEANVGKHPKDKTEDEN [TOR1AIP2],5.55 ± 0.2,5.44 ± 0.46
RVPAGIFKHTLSISRALLSDVVPE [MFSD9],2.82 ± 0.74,3.02 ± 0.22
EISKDNSCKENCTCSSCLLRAPTI [EDARADD],4.67 ± 0.29,4.86 ± 0.14
HFDATNLHKQTASDLLDEKEIAKN [FEM1C],5.38 ± 0.15,5.31 ± 0.29
ASSLPAEVHSLTLSPPEQAAQPMQ [PLAGL1],5.07 ± 0.12,4.89 ± 0.26
KESGQEGVDSMAEEGTSDSNTGSE [SMARCE1],5.01 ± 0.61,
MEMYNVIMTVKEDQFSALGLDPCL [SLC6A17],2.45 ± 0.62,2.26 ± 0.15

Sequence,protein stability index (treatment: DMSO),"protein stability index (treatment: MLN4924 1 uM, 8 h)"
YQQQHEQQKKDLEILHQQNIHQLQ [SASS6],4.47 ± 0.11,4.6 ± 0.19
MAAESGELIGACEFMKDRLYFATL [CDC14A],2.53 ± 1.1,1.82 ± 0.46
PLMPGMPPVMPGMPPGLHHQRKYT [ZNF207],3.91 ± 0.39,4.11 ± 0.18
IIGDYFSDQDPRVRTAAIKAMLQL [INTS4],2.19 ± 0.28,2.33 ± 0.2
NKLLLSIIILLELAILGGLVYYKF [VTI1B],2.96 ± 0.57,2.84 ± 0.49
SCEVSEENCERREAFWAEWKDLTL [TCAP],4.16 ± 0.2,4.21 ± 0.39
SLDGRDPGNGTHGLSPEEKEQLSN [ELOA2],5.48 ± 0.23,5.64 ± 0.16
LYPAVSAVWGQCQVRIRYLGERRA [SPSB2],2.56 ± 0.19,2.62 ± 0.38
MGQTALAGGSSSTPTPQALYPDLS [SPSB2],4.46 ± 0.37,4.66 ± 0.37
GKVIVWDSFTTNKEHAVTMPCTWV [GNB5],2.55 ± 0.37,2.27 ± 0.36
PLTGDKDDEEVDTHFASQEFFSAN [ADAMTSL2],5.37 ± 0.11,5.45 ± 0.19
RNLHSHYHEAPMTRKHYQVTGYGI [POMT2],2.35 ± 0.15,2.46 ± 0.23
DPNSQVGACIVNSENKIVGIGYNG [DCTD],4.56 ± 0.15,4.56 ± 0.48
KQYVLLSILLCLLASGLVVFFLFP [TMEM106C],2.43 ± 0.28,2.56 ± 0.44
FASDGDSGTCSPLRHSFQKQQREK [ADD1],3.98 ± 0.41,4.17 ± 0.39
MTTDFDLSLDNSPLLQSIHQLDFV [TRIM9],2.7 ± 0.33,2.71 ± 0.24
PVLEDNYMYLVIEELTREAVAVDV [HAGHL],2.34 ± 0.57,2.47 ± 0.17
CSSKRSSYPVMGFEFQVRVCDSCY [WDFY1],2.66 ± 0.9,2.32 ± 0.23
QILKDTKSITSAMNELQHDLDVVS [TPH1],3.82 ± 0.24,3.97 ± 0.092
NLLSPLLTGTESPFDLEQQWQDLM [NFE2L1],3.12 ± 0.21,3.17 ± 0.041
PTPANEERRGGLPPLPLHPGGDQG [WAS],5.38 ± 0.22,5.39 ± 0.065
AGLAPPSLFARAMQVLVTAISPGR [ANKRD9],2.29 ± 0.1,2.29 ± 0.18
APPQGSCGDELPWTLQRRLTRLRT [PLEKHN1],3.33 ± 0.26,3.51 ± 0.44

Sequence,protein stability index (treatment: DMSO),"protein stability index (treatment: MLN4924 1 uM, 8 h)"
TYIPENNARGASIFSVTALDPDSK [PCDHGA10],4.49 ± 0.17,4.62 ± 0.15
NCRLSEGDVMHLSQSPSVSQLSVL [PRAME],2.29 ± 0.63,2.37 ± 0.065
PRVRELLLDALSPEQLVLTLLEAE [ESR2],2.22 ± 0.22,2.22 ± 0.26
YIKTPLFNPEVAKYLKVPQDPLKF [IQUB],2.42 ± 0.66,2.57 ± 0.36
EKNRKDAEDWFFSKTEELNREVAT [KRT17],4.5 ± 0.14,4.71 ± 0.27
AIIRTPPKSPATPKQLRLINQPLP [MAP2],3.13 ± 0.19,3.15 ± 0.21
TRGFLRSPSSDLDTDAEGDDFELL [RETREG3],5.24 ± 0.17,5.29 ± 0.2
MTLAANHELMLRFKDEYKSENIKL [CCDC89],3.44 ± 0.17,3.72 ± 0.25
YQSFVQFLQYYYQSGCLYRLRALG [TMEM120A],2.67 ± 0.88,3.22 ± 0.57
AATLLLALLSCCLTVVSFYQVAAL [TNFSF13B],3.24 ± 0.23,3.31 ± 0.32
FPKINHGILYDEEKYKPFSQVPTG [CFHR2],2.4 ± 0.28,3.36 ± 0.34
ESSSDSGSSDSEEERATRLAELQE [BRD3],5.5 ± 0.25,5.51 ± 0.063
QGLIRAGKVEAQHILASAPTDRNL [PYCR3],3.96 ± 0.16,4.07 ± 0.4
PWTKEEDQKVIELVKKYGTKQWTL [MYBL2],2.61 ± 0.24,2.72 ± 0.16
EVITAAEFHPHHCNTFVYSSSKGT [PPP2R2B],3.28 ± 0.3,3.35 ± 0.56
TLMEEVLLLGLKDREGYTSFWNDC [GOLPH3],2.71 ± 0.58,2.72 ± 0.69
PRGSHSSALERLETKLHLLRQEMV [LURAP1L],2.53 ± 0.33,2.69 ± 0.27
RVRLDSELRNVQDVVEDYKKRYEE [KRT71],4.81 ± 0.28,4.97 ± 0.32
AARALDKNKIPYKGFIPEDLEAFI [FEM1A],2.96 ± 0.29,3.42 ± 0.41
EDSYRKQVEVDAQQCMLEILDTAG [RAP1B],4.62 ± 0.13,4.5 ± 0.14
GLSTEAEQPFIPVEVLVDLFLKEG [PRAME],3.05 ± 0.11,3.3 ± 0.33
PRELASMSLVLHGNNLLVFGGTGI [KLHDC10],2.46 ± 0.71,2.45 ± 0.59
KAAVSHWQQQSYLDSGIHSGATTT [CTNNB1],3.69 ± 0.2,3.78 ± 0.17

Sequence,protein stability index (treatment: DMSO),"protein stability index (treatment: MLN4924 1 uM, 8 h)"
VVYVKHQAQIDQYLGLVRTHINAV [RTN1],2.22 ± 0.82,2.52 ± 0.48
KQDVLGPSTTPPAHSSSNTIRSGI [SASS6],4.66 ± 0.34,4.63 ± 0.22
RLKCRSFKWYLENVYPEMRVYNNT [GALNT9],2.42 ± 0.17,2.19 ± 0.2
LSQPQQGEAMLANFKPRGYSECIV [GAN],3.13 ± 0.21,3.02 ± 0.37
LLNQQSLKRSANQMGVSAKRRPKA [MED27],3.47 ± 0.3,3.82 ± 0.24
YYLHPLPAGAEYCSSARHPAWGHC [SCNN1D],2.12 ± 0.2,2.21 ± 0.12
LPPKVGSFQLFVEGYKDADYWLRR [PI4K2A],2.41 ± 0.34,2.46 ± 0.17
KIAQNLDFVNLMAYDFHGSWEKVT [CHIT1],2.42 ± 0.35,2.18 ± 0.39
LSSNREAHQHRDKMQQSKNQVVSS [CSNK1G3],4.72 ± 0.21,4.81 ± 0.37
RPRKLYKHSSTSSRIAKGGVDHTK [BTBD10],4.06 ± 0.21,4.12 ± 0.23
LDVFGRGDNISDVSKFLEDDKWME [LUC7L3],4.72 ± 0.27,4.37 ± 0.14
MEALAAETNLLLAQKQRLERALDA [TEKT4],4.13 ± 0.4,4.13 ± 0.38
DDMPIGRNVLELNDVRQSANYTCV [PTPRD],3.72 ± 0.28,3.77 ± 0.44
VGGATPDQTTSEETVGGAILDQTT [HDAC6],5.48 ± 0.49,5.43 ± 0.35
RDWWNSTSFSNYYRTWNVVVHDWL [SOAT2],2.35 ± 0.34,2.26 ± 0.21
AKLAADDFRTKYETELSLRQLVEA [KRT36],3.73 ± 0.33,3.78 ± 0.061
RFTGTMDAFVKIVRHEGTRTLWSG [SLC25A39],2.53 ± 0.52,2.47 ± 0.25
SHHSKHKAPSKLGLIISGPILQEG [DLC1],3.08 ± 0.2,3.28 ± 0.13
LPDLCLCRVFWWLGDRDRSRAALV [FBXO39],2.5 ± 0.51,2.76 ± 0.7
PLHHQTQRFRLDNLLNMAYGVKSP [ELAVL3],2.5 ± 0.34,2.63 ± 0.27
